Measurements from patent US7067474B1, “Agents for treating human illnesses based on β-catenin, and the production and use thereof” (Max-Delbruck-Centrum fur Molekulare Medizin, priority 1998, dated 2006).

Key:
Assay in all cases: yeast 2-hybrid; - means 60-100% of the wild type interaction
[1] = molecular target: T1, human β-catenin (Leu218-Leu781) mutant Phe 253 to alanine, Gal-4 activation domain fusion (human, UniProt P35222 218-781)
T1 sequence: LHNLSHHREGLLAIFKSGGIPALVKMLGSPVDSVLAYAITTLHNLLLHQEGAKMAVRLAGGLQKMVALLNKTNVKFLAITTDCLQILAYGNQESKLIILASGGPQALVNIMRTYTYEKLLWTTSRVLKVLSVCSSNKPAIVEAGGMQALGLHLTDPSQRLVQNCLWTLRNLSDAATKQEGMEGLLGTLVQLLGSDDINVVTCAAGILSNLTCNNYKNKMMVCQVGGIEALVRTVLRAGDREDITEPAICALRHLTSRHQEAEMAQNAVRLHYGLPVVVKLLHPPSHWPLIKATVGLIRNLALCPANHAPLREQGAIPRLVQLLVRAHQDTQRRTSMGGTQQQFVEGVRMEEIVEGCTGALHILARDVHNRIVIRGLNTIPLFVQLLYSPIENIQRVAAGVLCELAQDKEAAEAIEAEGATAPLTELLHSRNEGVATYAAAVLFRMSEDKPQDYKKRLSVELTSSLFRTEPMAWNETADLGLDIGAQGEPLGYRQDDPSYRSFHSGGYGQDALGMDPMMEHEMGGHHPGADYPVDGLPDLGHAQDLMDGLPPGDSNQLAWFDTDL
Method: (§1) 4. Preparation and testing of mutants of β-catenin modulating the interaction with LEF-1, APC, conductin or E-cadherin The mutagenesis of β-catenin in the armadillo repeats 3–8 was carried out by means of the "mutagenesis kit" of the company Clontech according to the producer's record and the mutants were checked by sequencing (FIG. 5). In all mutants the original amino acid was substituted by alanine. For analyzing the interactions the cDNA of human β-catenin (armadillo repeat 3 up to the C-terminal end of the protein) coding for the amino acids Leu218–Leu7 µl or its mutants was cloned into the fusion vector for the activation domain of Gal-4 (pGAD424, Clontech). The cDNA for the binding domains of the interaction partners was cloned into the Lex-A fusion vector BTM 116. To this end, the cDNA of LEF-1 for the amino acids 1–99, conductin for the amino acids Ala342–ARG465; of human APC for the amino acids His1012–Glu1215 (APC 15 amino acid repeats) and for the amino acids Ser1259Asp 1400 (APC 20 amino acid repeats) and E-cadherin for the amino acids Gin773–Asp884 (cytoplasmatic domain) were amplified with the respective primers PCR. The interaction of the Lex-A hybrids with β-catenin and its mutants was quantified by means of the β-galactosidase reporter activity in the yeast 2-hybrid system (report: "Matchmaker". Clontech) (Tab. 2 and FIG. 6).

[2] = molecular target: T2, human β-catenin (Leu218-Leu781) mutant Trp 338 to alanine, Gal-4 activation domain fusion (human, UniProt P35222 218-781)
T2 sequence: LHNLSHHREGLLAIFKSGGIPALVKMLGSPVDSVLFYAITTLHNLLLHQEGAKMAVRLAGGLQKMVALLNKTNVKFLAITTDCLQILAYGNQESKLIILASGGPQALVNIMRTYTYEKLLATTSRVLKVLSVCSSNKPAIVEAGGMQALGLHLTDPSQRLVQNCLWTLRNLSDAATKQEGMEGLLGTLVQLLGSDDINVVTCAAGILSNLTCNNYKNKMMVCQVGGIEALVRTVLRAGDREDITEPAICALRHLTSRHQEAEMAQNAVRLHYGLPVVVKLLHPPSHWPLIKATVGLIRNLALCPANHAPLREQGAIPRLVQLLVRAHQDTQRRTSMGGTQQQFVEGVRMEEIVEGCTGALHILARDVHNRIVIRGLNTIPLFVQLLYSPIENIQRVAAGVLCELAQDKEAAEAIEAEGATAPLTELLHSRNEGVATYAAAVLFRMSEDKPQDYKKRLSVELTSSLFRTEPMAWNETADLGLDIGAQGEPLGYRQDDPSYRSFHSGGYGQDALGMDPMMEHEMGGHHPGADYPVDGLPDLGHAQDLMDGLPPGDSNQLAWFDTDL
Method: as §1

[3] = molecular target: T3, human β-catenin (Leu218-Leu781) mutant Trp 383 to alanine, Gal-4 activation domain fusion (human, UniProt P35222 218-781)
T3 sequence: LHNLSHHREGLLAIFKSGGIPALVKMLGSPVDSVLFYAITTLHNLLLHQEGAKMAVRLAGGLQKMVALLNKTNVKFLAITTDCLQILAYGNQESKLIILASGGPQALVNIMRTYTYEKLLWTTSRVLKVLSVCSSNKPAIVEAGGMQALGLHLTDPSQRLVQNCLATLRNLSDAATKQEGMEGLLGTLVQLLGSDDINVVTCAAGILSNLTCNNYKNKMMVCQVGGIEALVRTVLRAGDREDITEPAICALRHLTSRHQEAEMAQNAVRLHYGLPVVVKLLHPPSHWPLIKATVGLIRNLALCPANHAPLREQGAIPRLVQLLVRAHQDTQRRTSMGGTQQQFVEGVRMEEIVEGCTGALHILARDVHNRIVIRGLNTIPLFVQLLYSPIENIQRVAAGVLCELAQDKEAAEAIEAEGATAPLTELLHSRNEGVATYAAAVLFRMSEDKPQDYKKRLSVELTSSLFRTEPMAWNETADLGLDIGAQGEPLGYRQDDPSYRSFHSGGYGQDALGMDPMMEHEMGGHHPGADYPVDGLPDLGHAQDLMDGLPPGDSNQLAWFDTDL
Method: as §1

binding result [1]: binds
binding result [2]: binds
binding result [3]: binds
B1: LEF-1 amino acids 1-99 fused to Lex-A (vector BTM 116) (other, UniProt P0A7C2 1-202, looked up)
chain: MKALTARQQEVFDLIRDHISQTGMPPTRAEIAQRLGFRSPNAAEEHLKALARKGVIEIVSGASRGIRLLQEEEEGLPLVGRVAAGEPLLAQQHIEGHYQVDPSLFKPNADFLLRVSGMSMKDIGIMDGDLLAVHKTQDVRNGQVVVARIDDEVTVKRLKKQGNKVELLPENSEFKPIVVDLRQQSFTIEGLAVGVIRNGDWLMPQLSGGGGGGDPELCATDEMIPFKDEGDPQKEKIFAEISHPEEEGDLADIKSSLVNESEIIPASNGHEVVRQAPSSQEPYHDKAREHPDEGKHPDGGL
notes: Order of the fusion follows the vector; also called LEF-1/TCF-4
